B1: Compound 6: Thioflavin T acid bound to glucose oxidase (GOx); 5.6 molecules per GOx molecule (conjugate, UniProt P13006 17-605, looked up)
Glucose oxidase: LPHYIRSNGIEASLLTDPKDVSGRTVDYIIAGGGLTGLTTAARLTENPNISVLVIESGSYESDRGPIIEDLNAYGDIFGSSVDHAYETVELATNNQTALIRSGNGLGGSTLVNGGTWTRPHKAQVDSWETVFGNEGWNWDNVAAYSLQAERARAPNAKQIAAGHYFNASCHGVNGTVHAGPRDTGDDYSPIVKALMSAVEDRGVPTKKDFGCGDPHGVSMFPNTLHEDQVRSDAAREWLLPNYQRPNLQVLTGQYVGKVLLSQNGTTPRAVGVEFGTHKGNTHNVYAKHEVLLAAGSAVSPTILEYSGIGMKSILEPLGIDTVVDLPVGLNLQDQTTATVRSRITSAGAGQGQAAWFATFNETFGDYSEKAHELLNTKLEQWAEEAVARGGFHNTTALLIQYENYRDWIVNHNVAYSELFLDTAGVASFDVWDLLPFTRGYVHILDKDPYLHHFAYDPQYFLNELDLLGQAAATQLARNISNSGAMQTYFAGETIPGDNLAYDADLSAWTEYIPYHFRPNYHGVGTCSMMPKEMGGVVDNAARVYGVQGLRVIDGSIPPTQMSSHVMTVFYAMALKISDAILEDYASMQ
modifications: Thioflavin T acid conjugated, 5.6 per GOx
notes: 5.6 molecules per GOx molecule
B2: GOx: glucose oxidase (manufactured by Sigma-Aldrich, G2133), unmodified comparison (protein, UniProt P13006 17-605, looked up)
Glucose oxidase: B1 Glucose oxidase

Molecular target: T1, fibroin sheet (Bombyx mori, UniProt P05790)
T1 construct: purchased Sigma-Aldrich
Assay: Color intensity of modified fibroin sheet after glucose/HRP/4-aminoantipyrine chromogenic reaction
Format: biochemical
Conditions: fibroin sheet adsorbed from 0.3 mg/mL solution, 10 mM glucose, 1000 U/mL HRP, 5 minutes, ImageJ, average of five sheets
Procedure: After methanol was added to the collected sheet, methanol was removed and dried overnight. The measurement of the weight of the fibroin sheet cut into 20 mm×40 mm size confirmed that it was 1.25 μg/mm^2 fibroin sheet. Fibroin sheets of 5 mm×5 mm size were cut and added to an aqueous solution of 0.3 mg/mL Compound 1 (0.2 mL) and allowed to stand for 10 minutes. Fibroin sheets were immersed in PBS buffer (1 mL, pH7.4) containing 0.05 wt % Tween20 for 15 minutes×2 and in PBS (1 mL, pH7.4) for 1 minute. The modified fibroin sheet was obtained by drying at room temperature.
A fibroin sheet adsorbed with Compound 6 was prepared in the same manner as Manufacturing Example 2 except that 0.3 mg/mL Compound 6 aqueous solution was used instead of the aqueous solution of Compound 1.
1.5 μL of phosphate buffered saline (pH7.4) containing 10 mM glucose, 1000 U/mL HRP, 3.7 mM 4-aminoantipyrine, 6.4 mM sodium 3-[ethyl(m-tolyl) amino]-2 hydroxy-1 propanesulfonate was added dropwise to a fibroin sheet modified with Compound 6 obtained in Manufacturing Example 12 and allowed to stand in a wet box for 5 minutes. […] After drying the sheet, the sheet was read by a scanner to obtain image data. […] Five sheets were prepared and subjected to the same evaluation, and the average value of color intensity (Color Intensity, hereinafter CI value) was calculated. The calculated CI value was 54.5.

Molecule	CI value (average color intensity)
B1	54.5
B2	30.8

Reference: patent publication US20250361264A1, “PROTEIN MODIFYING REAGENT” (CANON KABUSHIKI KAISHA, priority 2023, published 2025)
